The data set in a line: yeast display, Sf9 membrane polyspecificity reagent, FACS + sequencing; frameworks hold sequencing errors. An outline of the steps:
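Galactose induction of a Saccharomyces cerevisiae BJ5465 synthetic nanobody display library ran 36–48 hours. The cells were then stained for 1 hour at 4 °C with 10% biotinylated, detergent-solubilized Sf9 membrane reagent, pulled down on streptavidin microbeads and FACS-sorted into low and high (top ~1%) gates on expression and reagent-binding fluorescence. Labels for polyreactivity follow the gate of origin.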
In the case of “QVQLVESGGGLVQAGGSLRLSCAASGRIFYYNTMGWYRQAPGKERELVAAITTNGGSTYYADSVKGRFTISRDNAKNTVYLQMNSLKPLDTAVYYCKRDRYPYYYAYNYWGQGTQVTVSS”, the “polyreactivity (PSR sort gate)” value is on record as “low polyreactivity”.
Next, “QVQLVESGGGLVQAGGSLRLSCAASGRIFYYYAMGWYRQAPGKEREFVAAISQRGGSTSYADSVKGRFTISRDNAKNTVYLQMNSLKPEDTAVYYCAAEYYLRVSGRTYVTSHDYWGQGTQVTVSS”: “high polyreactivity”; “QVQLVESGGGLVQAGGSLRLSCAASGRIFYYYAMGWYRQAPGKEREFVADISARGGSTYYADSVKGRFTISRDNAKNTVYLQMNSLKPEDTAVYYCAATTGLYTRYGYWGQGTQVTVSS”: “high polyreactivity”.
Next, “QVQLVESGGGLVQAGGSLRLSCAASGRIFYYYAMGWYRQAPGKERELLAAITRGGGTYYADSVKGRFTISRDNAKNTVYLQMNSLKPEDTAVYYCAKRGPPESHHPYRYRFDYWGKGTQVTVSS”: “low polyreactivity”; “QVQLVESGGGLVQAGGSLRLSCAASGRIFYYYAMGWYRQAPGKERELVAAISASGASTYYADSVKGRFTISRDNAKNTVYLQMNSLKPEDTAVYYCAAEEFYYYSADWYDYWGQGTQVTVSS”: “high polyreactivity”; “QVQLVESGGGLVQAGGSLRLSCAASGRIFYYYAMGWYRQAPGKERELVAAISWSGVNTYYADSVKGRFTISRDNAKNTVYLQMNSLKPEDTAVYYCAAGFAYKYSKGFWSDYWGQGTQVTVSS”: “high polyreactivity”.
The entry for “QVQLVESGGGLVQAGGSLRLSCAASGRIFYYYAMGWYRQAPGKERELVAAITRGDSTTYADSVKGRFTISRDNAKNTVYLKMNILKPEDTAVYYCNAGRGTFKRYTALQYWGQGTQVTVSS” is “low polyreactivity”; for “QVQLVESGGGLVQAGGSLRLSCAASGRIFYYYAMGWYRQAPGKERELVAGIDSGDSTNYADSVKGRFTISRDNAKYTVYLQMNSLKPEDTAVYYCAALHFGGYFSYYPYYYWGQGTQVTVSS” it is “low polyreactivity”.
Regarding “QVQLVESGGGLVQAGGSLRLSCAASGRIFYYYAMGWYRQAPGKERELVATISGIGGSTYYADSVKGRFTISRDNAKNTVYLQMNSLKPEDTAVYFCTADYPTSYPLFKSGFDYWGQGTQVTVSS”, the “polyreactivity (PSR sort gate)” value is “low polyreactivity”.
In the case of “QVQLVESGGGLVQAGGSLRLSCAASGRIFYYYAMGWYRQAPGKERELVAVISRGGRTKYADSVKGRFTISRDNAKNTVYLQMNSLKPEDTAVYYCAAYPSYYGDSGLRYDYWGQGTQVTVSS”, the “polyreactivity (PSR sort gate)” value was “high polyreactivity”.
For the sequence “QVQLVESGGGLVQAGGSLRLSCAASGRIFYYYGMGWYRQAPGKERELVAAISNGGRTYYADSVKGRFTISRDNAKNTVYLQMNSLKPEDTAVDYCAALTRGRGGYDYWGQGTQVTVSS”, the “polyreactivity (PSR sort gate)” value was “high polyreactivity”.
Next, “QVQLVESGGGLVQAGGSLRLSCAASGRIFYYYVMGWYRQAPGKERELVAAISSRGGSTYYADSVKGRFTISRDNAKNTVYLQMNSLKPEDTAVYYCAAEYGSISLRYPYYWRYDYWGQGTQVTVSS”: “high polyreactivity”.
As for “QVQLVESGGGLVQAGGSLRLSCAASGRIGKYAMGWYRQAPGKERELVATISSTGTTNYADSVKGRFTISRDNAKNTVYLQMNSLKPEDTAVYYCAADKPSYRTLSWGGYWGQGTQVTVSS”, the “polyreactivity (PSR sort gate)” value is listed as “high polyreactivity”.
With “QVQLVESGGGLVQAGGSLRLSCAASGRIGRYAMGWYRQAPGKERELVAVITSGDSTYYADSVKGRFTISRDNAKNTVYLQMNSLTPEDTAVYYCAADSYRRWGNLFTGNEYDSWGQGTQVTVSS”, the “polyreactivity (PSR sort gate)” value is given as “low polyreactivity”.
As for “QVQLVESGGGLVQAGGSLRLSCAASGRIIASYAMGWNRHAPGKETELVAAISLSGGSTYYADSVKGRFTISRDNAKNTVYLQMNSLKPEDCAVYYCAAKNYRRYRDYYWGQGTQVSVSS”, the “polyreactivity (PSR sort gate)” value was “high polyreactivity”.
With “QVQLVESGGGLVQAGGSLRLSCAASGRIIAVNAKGWYRQAPGKERELVAAINGGGSTNYADSVKGRFTISRDNAKNTVYLQMNSLKPEDTAVYYCAADVGWRSQTRGYYWGQGTQVTVSS”, the “polyreactivity (PSR sort gate)” value is on record as “high polyreactivity”.
As for “QVQLVESGGGLVQAGGSLRLSCAASGRIIAYYAMGWYRQAPGKERELVAGINSGGGSTYYADSVKGRFTISRDNAKNTVYLQMNSLKPEDTAVYYCAARAGGVDGYDYWGQGTQVTVSS”, the “polyreactivity (PSR sort gate)” value is “high polyreactivity”.
On to “QVQLVESGGGLVQAGGSLRLSCAASGRIIDFYTMGWYRQAPGKERELVAGINGSGASTYYADSVKGRFTISRDNAKNTVYLQMNCLKPEDTAVYYCAKDPGYYDDYDYWGQGTQVTVSS”, for which the “polyreactivity (PSR sort gate)” value is given as “low polyreactivity”.
Turning to “QVQLVESGGGLVQAGGSLRLSCAASGRIIFHNAMGWYRQAPGKERELVASITSGDGTYYSDSVKGRFTISRDNAKNTVYLQMNSMKPEDTAVYYCAAEPGSIAYYYNRVGLYYWGQGTQVTVSS”, the “polyreactivity (PSR sort gate)” value is “low polyreactivity”.
“QVQLVESGGGLVQAGGSLRLSCAASGRIIGLYARGWYRQAPGKERELVAAITWRGGRTYYADSVKGRFTISRDNAKNTVYVQMNRLSPEDTAVYYCAADLSNSLDYWGQGSQVTVSS”: the “polyreactivity (PSR sort gate)” value is “high polyreactivity”.
The entry for “QVQLVESGGGLVQAGGSLRLSCAASGRIIGWYAMGRYRQAPGKERELVAAISQDATRTYYADSVKGRFTISRDNAKHTVYLQMNRLKPEDTAVYYCNVVYRYAGWSYDSWGQGTQVTVSS” is “high polyreactivity”; for “QVQLVESGGGLVQAGGSLRLSCAASGRIIGYYAKGWYRQAPGKERELVAAISYSGGATYYADSVKGRFTISRDNEMNTVYLQSKSLKPEVTAVYYCAAQGRWPQRYGYWGQGTQVTVSS” it is “high polyreactivity”; for “QVQLVESGGGLVQAGGSLRLSCAASGRIIGYYAMGWYRQAPGKERELVAAISRRGGSTYYADSVKGRFTISRDNAKNTVYLQMNSLKPEDTAVYYCNADRVLTRPRYDYWGQGTQVTVSS” it is “low polyreactivity”.
The entry for “QVQLVESGGGLVQAGGSLRLSCAASGRIIGYYAMGWYRQAPGKEWELVAAITSSGSRTYYADSVKGRFTISRDNAKNTVYLQMNSLKPDDTAVYYCATTKVYYSAKSSYYYWGQGNQVTVSS” is “high polyreactivity”.
For “QVQLVESGGGLVQAGGSLRLSCAASGRIIKLYAMGWYRQAPGKEREFVAAITWSGGRTYYADSVKGRFTISRDNAKNTVYLQMNSLKPEDTAVYYCAAYDTYDWYDYWGQGTQVTVSS”, the “polyreactivity (PSR sort gate)” value was “high polyreactivity”.
In the case of “QVQLVESGGGLVQAGGSLRLSCAASGRIIPNNAMGWYRQAPGKERELVAAITRGGTTYADSVKGRFTISRDNAKNTVYLQMNSLKPEDTAVYYCDTAAVKYGYRYYYWGQGTQVTVSS”, the “polyreactivity (PSR sort gate)” value is reported as “high polyreactivity”.
With “QVQLVESGGGLVQAGGSLRLSCAASGRIIPRNAMGWYRQAPGKEMELVAGISRGGSTYYADSVKGRFTISRDNAKNTVYLQMNSLKTEDTAVYYCAAAYQKSPITPKMDYWGQGTQVTVSS”, the “polyreactivity (PSR sort gate)” value is recorded as “low polyreactivity”.
Consider “QVQLVESGGGLVQAGGSLRLSCAASGRIIQGYAIGWYRQAPGKERELVDAIRSGSGSTYYADSVKGRFTISRDNAKNTVYLQMNSLKPEDTAVYYCAADRYYWGQGTQVTVSS”, for which the “polyreactivity (PSR sort gate)” value was “low polyreactivity”.
With “QVQLVESGGGLVQAGGSLRLSCAASGRIIRINAMGSYRPAPGKERELVAAITRGGTTYADSVKGRFTISRDNAKNTVYLQMTSLIPEDTSVYNCNARTGRSPSGFRYWGQGTQVTVSS”, the “polyreactivity (PSR sort gate)” value is “high polyreactivity”.
On to “QVQLVESGGGLVQAGGSLRLSCAASGRIIRINAMGWYRQAPGKERELVATISRSGGRTYYADSVKGRFTISRDNAKNTVYLQMNSLKPEDTAVYYCNADHFYYSSQYGYWGQGTQVTVSS”, for which the “polyreactivity (PSR sort gate)” value is given as “high polyreactivity”.
Regarding “QVQLVESGGGLVQAGGSLRLSCAASGRIIRYYAMGWYRQAPGKEREFVATISSGGSTNYADSVKGRFTISRDNAKNTVYLQMNSLKPEDTAVYYCNRVYRRHVWGQGTQVTVSS”, the “polyreactivity (PSR sort gate)” value is “high polyreactivity”.
“QVQLVESGGGLVQAGGSLRLSCAASGRIISRYTMGWSRQAPGKEREWVAGISRSGDRTYYADSVKGRFTISRDNAKNTVYLQMNSLKPEDTAVYSCNAGYWRFIDSYDYWGQGTQVTVSS”: the “polyreactivity (PSR sort gate)” value is given as “high polyreactivity”.
For the sequence “QVQLVESGGGLVQAGGSLRLSCAASGRIISYYAMGWYRQAPGKERELVAAISRSGGSTYYADSVKGRFTISRDNAKNTVYLQMNSLKPEDTAVYYCAKYFRPVQGDKWGFKYWGQGTQVTVSS”, the “polyreactivity (PSR sort gate)” value is recorded as “high polyreactivity”.
As for “QVQLVESGGGLVQAGGSLRLSCAASGRIITYYAMGWYRQAPGKERELVAAITASGSRTYYADSVKGRFTISRDNAKNTVYLQMNSLKPEDTAVYYCAALSRLSPLSGSYYWGQGTQVTVSS”, the “polyreactivity (PSR sort gate)” value is “high polyreactivity”.
Regarding “QVQLVESGGGLVQAGGSLRLSCAASGRIIYGNAMGWYRQAPGKERELVAAITSGGSTNYADSVKGRFTISRDNAKNTVYLQMNSLKPEDTAVYYCNAVVYSPYRYEYWGQGTQVTVSS”, the “polyreactivity (PSR sort gate)” value is “low polyreactivity”.
Regarding “QVQLVESGGGLVQAGGSLRLSCAASGRIIYGYAMGWDRQAPGKEREFVARINVSGTSTFYADSVKGRFTISRDNAKNTVYLQMNSLKTVDTAVYDCAARGLPSNYYYYVHGYIMDHWGQGTQVSVSS”, the “polyreactivity (PSR sort gate)” value is listed as “low polyreactivity”.
In the case of “QVQLVESGGGLVQAGGSLRLSCAASGRIIYIYAMGWYRQAPGKERELVAAITASSGSTNYADSVKGRFTISRDNAKNTVYLQLNSLKPEDTAVYYCAAAPSRTLLRQSKYYYWGQGTQVTVSS”, the “polyreactivity (PSR sort gate)” value was “low polyreactivity”.
On to “QVQLVESGGGLVQAGGSLRLSCAASGRIIYKYAMGWYRQAPGKERELVAAISYSGGSTYYADSVKGRFTISRDNAKNTVYLQMKSLKPEDTAVYYCNAKPPYGVRSWGDYWGQGTQVNVSS”, for which the “polyreactivity (PSR sort gate)” value is given as “low polyreactivity”.
As to “QVQLVESGGGLVQAGGSLRLSCAASGRIIYPNTMGWYRQAPGKERELVAAINRLGGSTYYADSVKGRFTISRDYAKNTVYLQMNSLIPEDTAVYYCAAYTTWTRSGYYDFTSYFWGQGTQVTVSS”, the “polyreactivity (PSR sort gate)” value was “high polyreactivity”.
The entry for “QVQLVESGGGLVQAGGSLRLSCAASGRIIYPYALGWYRQAPGKERELVAAISSGSSTNYADSVKGRFTISRDNAKNTVYLQMNSLQPEDTAVYYCNADLVSGVVYDSDYWGQGTQVTVSS” is “low polyreactivity”; for “QVQLVESGGGLVQAGGSLRLSCAASGRIIYRYAMGWYRQAPGKERELVATITWSTTSTYYADSVKGRFTISRDNAKNTVYLEMNSLKPEDTAVYYCASSIIPGFRRDPFGYWGQGTQVTVSS” it is “low polyreactivity”.

The values above are taken from the nanobody polyreactivity screen of Harvey et al. (2022).
